Experiments:
Format in all cases: cell-based
[1] = test system: phosphorylated ERK1/2; assay: ERK1/2 phosphorylation and nuclear translocation in RSMC (immunostaining); set-up: inhibition of HMGB1-induced ERK phosphorylation and nuclear translocation: dose or concentration left out as unconfirmed
Description: Afterwards, whether the HMGB1-induced signaling involves the MAP kinase pathway, was investigated; in fact, it is known that these proteins are activated by RAGE, and they have a direct role in the regulation of the intracellular motility machinery. RSMC were pretreated with PD98059 ([…]) for one hour or were not pre-treated, stimulated for 30 minutes with HMGB1 from calf thymus (100 ng/ml) and stained with specific antibodies against phosphorylated ERK1/2 (New England Biolabs, Beverly, Mass.) and DAPI. A separate sample of cells was stained with TRITC-phalloidin to visualize the reorganization of cytoskeleton. […] Moreover, PD98059, the selective inhibitor of MEK, the upstream regulator of ERK, inhibits HMGB1-induced ERK phosphorylation and. nuclear translocation, as well as RSMC migration and cytoskeleton reorganization.

[2] = test system: RSMC; assay: Chemotaxis assay, modified Boyden chambers, RSMC
Description: Chemotaxis assays were performed using well-known protocols (Degryse et al., 1999, Blood, 94: 649-662).
Modified Boyden chambers were used with filters having 0.5 Am pore size (Corning, Acton, Mass.) and. treated with collagen I (100 Ug/ml in 0.5 M acetic acid) e fibronectin (10 IIg/ml) (Roche). RSMC cells (kind gift of Dr. Marco Bertulli, Bayer Research Laboratories, Milan) were cultured in DMEM serum-free and a sample of 20.000-40.000 cells was added to the upper well of Boyden. chamber. The molecules to be tested were diluted in the same serum-free medium and added to the lower well.
Different HMGB1 preparations were used: HMGB1 purified from calf thymus (kind gift of J. Bernues, C.S.I.C., Barcelona, Spain), E. coli expressed […], and a lightly modified HMGB1 form (containing EAEAYVEF aminoacids bound to the Nterminus) produced in yeast Pichia pastoris (Mistry et al., 1997, Biotechniques, 22: 718-729).
If necessary, the polyclonal rabbit anti-HMGB1 (Pharmingen B D, Torrey Pines, Calif.), the pertussis toxin (PT) from Bordetella pertussis (kind gift of Dr. M. G. Pizza, I.R.I.S., Siena) or the inhibitors were added in both wells.
Overnight cell migration was allowed at 37 C, then cells remaining on the upper surface of filters were scraped off and filters were fixed in methanol and stained in a solution of 10% crystal violet in 20% methanol. All experiments were performed at least twice in triplicate.
Results, as shown in FIGS. 1-A, 1-B, 1-C, 1-D, are the mean±SD of the number of cells counted in 10 high power fields per filter and expressed as fold over control. To random cell migration (i.e., migration in the absence of chemoattractant) was given the arbitrary value of 100%.
Statistical analysis was performed using Student's t test for pairwise comparisons of treatments, or an ANOVA model for the evaluation of treatments with increasing doses of a reagent.
Knowing that many chemoattractants act via membrane receptors associated to heterotrimeric GTP binding proteins (G proteins), whether G proteins could be implicated in HMGB1 signaling was tested. […] RSMC were pre-treated with PT or with mPT (50 ng/ml) for 6 hours, thus stimulated with HMGB1 (100 ng/ml), Box A or Box B (10 ng/ml) for 30 minutes.
Chemotaxis assays were performed as previously described. The data represent the mean±SD and the value of 100% corresponds to basal migration in the absence of any stimulator.

[3] = test system: RSMC; assay: Immunofluorescence assay of RSMC morphology and actin cytoskeleton organization
Description: Samples of 15.000-20.000 RSMC, 20-40% confluence, 2 were seeded on glass coverslips in 2 cm wells and cultured for 24 hours in DMEM plus 10% FCS, washed with PBS, and cultured for another 24 hours in DMEM without FCS. RSMC were stimulated with HMGB1 100 ng/ml for increasing time intervals, from 5 to 120 minutes at 37 C. After stimulation, RSMC were fixed for 20 minutes at room temperature with a solution of 3% paraformaldehyde, 2% sucrose in PBS, pH 7.5, followed by three washes with PBS-BSA 0.2%. Cells were permeabilized with 20 mM Hepes pH 7.4, 300 mM saccharose, 50 mM NaCl, 3 mM MgCl2, 0.5% (v/v) Triton X-100 for 3 minutes at 4 C, and washed again three times with PBS-BSA 0.2%. Then, RSMC were incubated with PBS-BSA 2% for. 15 minutes at 37 C, with primary antibodies for 30 minutes at 37 C, washed three times with PBS-BSA 0.2%, and further incubated with PBS-BSA 2% for 15 minutes. At the end, cells were stained with secondary antibodies and/or phalloidin conjugated with rodamin for visualization of filamentous actin; in some cases, DAPI (4′,6-diamidino-2-phenilindolo, Roche) was used to label the nucleus.
After all the subsequent incubation, coverslips were washed three times with PBS-BSA 0.2%, twice with distilled water, mounted with 20% Mowiol in PBS and analysed on a Axiophot microscope (Carl Zeiss).
Fluorescence photographs were taken either on T-Max 400 or EPH P1600X film (Eastman Kodak) using Zeiss 40 and 100 neofluar lenses.
In certain experiments cells were overnight pretreated with antibodies or PT or inhibitors.
Finally, to determine whether the observed effects of HMGB1 on RSMC actually reflect a dynamic transition from resting to motile states, the proportion of cells in each different state was quantified.

[4] = test system: Mouse embryonic fibroblasts; assay: Chemotaxis assay on fibroblasts, modified Boyden chambers
Description: Chemotaxis assays were performed using well-know protocols (Degryse et al., 1999, Blood, 94:64. 9-662). Modified Boyden chambers were used with filters having 0.5 ym pore size (Corning, Acton, Mass.) and treated with collagen I (100 pg/ml in 0.5 M acetic acid) and fibronectin (10 IIg/ml) (Roche). Mouse embryonic fibroblasts were cultured following well-known protocols (Calogero et al., 1999, Nat. Genet., 22: 276280) and after 24 hours of serum starvation, a sample of 20.000-40.000 cells was added to the upper well of Boyden. chamber. E. Coli expressed recombinant-HMGB1 was diluted in the same serum-free medium and added to the lower well. Anti-RAGE antibodies (1000 ng/ml) (kind gift of Dr. A. M. Schimdt, Columbia University, NY) were added in both wells.
Overnight cell migration. was allowed at 37 C, then cells remaining on the upper surface of filters were scraped off and filters were fixed in methanol and stained in a solution of 10% crystal violet in 20% methanol. All experiments were performed at least twice in triplicate.
Results, as shown in FIG. 10 are the mean W SD of the number of cells counted in 10 high power fields per filter and expressed as fold over untreated control. To random cell migration (i.e. migration in absence of chemoattractant) was given the arbitrary value of 100%.
Statistical analysis was performed using an ANOVA model for the evaluation of treatments with increasing doses of a reagent. […] Anti RAGE antibodies (1000 ng/ml) totally block the migratory response (right side of the graphic of FIG. 10) showing that this is specifically due to HMGB1.

[5] = HMGB1 100 ng/ml, one hour after stimulation

## COc1cccc(-c2cc(=O)c3ccccc3o2)c1N [PD98059, reference compound]
[1]; pretreated with PD98059 for one hour
  inhibition of HMGB1-induced ERK phosphorylation and nuclear translocation: inhibits
[2]; inhibitor in both wells or pre-treatment, HMGB1 as chemoattractant
  inhibition of HMGB1-induced RSMC migration: inhibits
[3]; cells pretreated with antibodies, PT or inhibitors
  inhibition of HMGB1-induced cytoskeletal reorganization and morphological change of RSMC: inhibits

B1: E. Coli expressed recombinant-HMGB1: full-length HMGB1 expressed in E. Coli transformed with pT7-7-rHMGlcm plasmid (protein, UniProt P09429 1-215, looked up)
chain: MGKGDPKKPRGKMSSYAFFVQTCREEHKKKHPDASVNFSEFSKKCSERWKTMSAKEKGKFEDMAKADKARYEREMKTYIPPKGETKKKFKDPNAPKRPPSAFFLFCSEYRPKIKGEHPGLSIGDVAKKLGEMWNNTAADDKQPYEKKAAKLKEKYEKDIAAYRAKGKPDAAKKGVVKAEKSKKKKEEEEDEEDEEDEEEEEDEEDEDEEEDDDDE
modifications: full-length expressed in E. coli
notes: full-length HMGB1 expressed in E. Coli transformed with pT7-7-rHMGlcm plasmid
[4]
  dose giving maximal migratory response of fibroblasts: 100 ng/mL
[4]; 1000 ng/ml
  migratory response of fibroblasts at higher doses: lower than the control
[4]; concentration-dependent
  lowest dose stimulating fibroblasts migration: 0.1 ng/mL

B2: HMGB1: HMGB1 protein, 25-kD, 215 amino acids, two HMG boxes and acidic COOH terminus; preparation not specified at the place (protein, UniProt P09429 1-215, looked up)
High mobility group protein B1: MGKGDPKKPRGKMSSYAFFVQTCREEHKKKHPDASVNFSEFSKKCSERWKTMSAKEKGKFEDMAKADKARYEREMKTYIPPKGETKKKFKDPNAPKRPPSAFFLFCSEYRPKIKGEHPGLSIGDVAKKLGEMWNNTAADDKQPYEKKAAKLKEKYEKDIAAYRAKGKPDAAKKGVVKAEKSKKKKEEEEDEEDEEDEEEEEDEEDEDEEEDDDDE
[1]; HMGB1 from calf thymus 100 ng/ml, within 30 minutes
  activation and nuclear translocation of ERK1/2 in RSMC: induces the activation of ERK1/2 proteins
[2]; overnight migration, serum-free medium
  chemotactic effect on RSMC (in words): comparable in amplitude to the effects of the well characterised attractants fMLP and bFGF
[3]; HMGB1 100 ng/ml, after 15-30 minutes
  proportion of cells in state 2: 80%
[3]; [5]
  proportion of cells in state 1: 60%
  proportion of cells in state 2: 40%
[3]; HMGB1 100 ng/ml, within 15-30 minutes
  change of RSMC morphology and cytoskeleton organization: complete change of morphology and cytoskeleton organization
[3]; HMGB1 100 ng/ml, within 5 minutes after stimulation
  proportion of cells in state 2: 60%

B3: HMGB1 from calf thymus: HMGB1 purified from calf thymus (protein, UniProt P10103 2-215, looked up)
High mobility group protein B1: GKGDPKKPRGKMSSYAFFVQTCREEHKKKHPDASVNFSEFSKKCSERWKTMSAKEKGKFEDMAKADKARYEREMKTYIPPKGETKKKFKDPNAPKRPPSAFFLFCSEYRPKIKGEHPGLSIGDVAKKLGEMWNNTAADDKQPYEKKAAKLKEKYEKDIAAYRAKGKPDAAKKGVVKAEKSKKKKEEEEDEEDEEDEEEEEDEEDEEEEEDDDDE
[2]; at 100 ng/ml, random cell migration = 100%
  maximal migratory response of RSMC: 2.5 fold
[2]; concentration-dependent, overnight migration
  lowest dose stimulating migration of RSMC: 0.1 ng/mL

Reference: patent US20100172896A1, “HMGB1 PROTEIN INHIBITORS AND/OR ANTAGONISTS FOR THE TREATMENT OF VASCULAR DISEASES” (BIO3 RESEARCH SRL, priority 2001, published 2010)
